In article PMC12912723 (eLife, 2026):
Positions count from the first letter of the chain named.

B1: P5G10 (human anti-PscF monoclonal antibody) (antibody, V domains shown)
VH: VQLQQWGAGLLKPSETLSLTCAVYGGSFSDYYWTWIRQAPGKGLEWIGENRHRGTTNYNPSLKGRVTISVDTSKNQFTLKVTSVTAADTAVYFCARQRGSSGGAPSGLDVWGQGTTVTVSS
VL: QSVLTQPPSASGTPGQRVTISCSGASSNIGTNYVFWYQQFPGTAPKLLIYRNGHRPSGVPDRFSGSKSGASASLAISGLRSDDEADYYCATWDDSLSSQVFGGGTKLTVL
notes: also called P5G10 mAb
B2: P1B7 (antibody, V domains shown)
VH: EVQLLESGGGLVQPGGSLRLSCAASGFTFKSYAMSWVRQAPGKGLEWVSAISGSGGSKYYADSVKGRFTISRDDSKNTLYLQMNSLRVEDTAVYYCAKPLLDSVYCLESWGQGTLVTVSS
VL: DIQMTQSPSSLSASVGDRVTITCRASQDISNYLSWYQQRPGKAPKSLIYAAFRLQSGVPSKFSGSGSGTDFTLTISSLQPEDFATYYCQQYYTYPPTFGQGTKLEIK
B3: P5D5 (antibody, V domains shown)
VH: B2 VH with K30N, S31N, N77S, T78R, V93L, A97T, D102E, C106Y
VL: B2 VL with D28G, Y32H, S34A, Y36F, R39K, F52S, K61R, T85S, T93S, T97A
B4: P1D5 (antibody, V domains shown)
VH: QVQLHESGPGLVEPSQTLTLTCTVSGGSTDSDGVYWTWIRQPAGKGLEWIGRIDNRGTYSYNPSLRSRITISEEPSQNQFSLRVRSLTAADAGVYYCAREVRRLQGRRYYYYGTDVWGPGTTVTVSS
VL: DIVMTQSPLSLSVTLGESASISCRSSQSLLHTNAYNYLDWYLQRPGQSPQLLIYLSSVRASGVPDRFSGRGSGTDFTLKISRVEAEDVGIYFCMQALEMPFTFGPGTKVDIK
B5: P3G2 (antibody, V domains shown)
VH: QVQLQESGPGLVKPSETLSLTCSVSGGSVASGDFYWSWVRQPAGTGLEWIGRVSTSGSTNCNPSLKSRVTISIDTSKNEFSLRLPSVTAADTAVYYCARYRPGSGGLGVYYDYWGQGILVTVSS
VL: QSALTQPPSASGSPGQSVTISCTGASSDIGGYNYVSWYQQHPGRAPRLMIYEVHNRPSGVPDRFSGSKSGNTASLTVSGLQAEDEADYYCMSYAGGNILLFGGGTKLTVL
B6: P3G7 (antibody, V domains shown)
VH: EVQLVESGGGLVQPGRSLTLSCAVTGFIVRDYHIDWVRQAPGKGLEWVGRARNKASRYRVVYAASLKDRFTIIRDDSKNSIYLRMSSLKTEDAAMYFCVRVGHYDTQGYALDDYDVWGQGTAVTVSS
VL: QSVLTQSPSVSAAPGQRVTIHCFGSSSTIGSNQLSWYQQVPGTAPKLLIYDSDKRPSGIPDRFSASKSGTSGTLDISGLQSGDEADYYCETWDDTLKAVVFGGGTKLTVL
B7: P1D7 (antibody, V domains shown)
VH: EVQLLESGGGLVQPGGSLRLSCAASGFTFTSYAMSWVRQAPGKGLEWVSALSNSGDSTYYADSVKGRFTISRDNSKNTLYLQMHSLRVEDTAVYYCAKDREGDYGDYVFDYWGQGTLVTVSS
VL: SYVLTQPPSVSVAPGQTARIPCGGNNIGRKSVHWYQQKPGQAPVLVVYDDSDRPSGIPERFSGSNSGNTATLTISRVEAGDEADYYCQVWDSSDDLVVFGGGTTLTVL

Biological target: T1, PscF from strain PAO1 (Pseudomonas aeruginosa PAO1, UniProt P95434)
T1 construct: also called recombinant PscF; PscF-His
Test: ELISA; competition ELISA; serial dilutions of competitor mAbs on antigen-coated wells for 30 min, then biotinylated mAbs at their EC70; detected with AP-conjugated streptavidin
Conditions: both partners purified

T1 sequence (P95434 whole entry): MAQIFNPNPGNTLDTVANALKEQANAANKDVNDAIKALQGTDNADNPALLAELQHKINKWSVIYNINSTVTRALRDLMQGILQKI

Q: Does B1 bind?
A: binds

Biological target: T1, PscF from strain PAO1
Test: not given
Conditions: not given

Q: Does B2 bind?
A: binds

Q: Does B3 bind?
A: binds

Q: Does B4 bind?
A: binds

Q: Does B5 bind?
A: binds

Q: Does B6 bind?
A: binds

Q: Does B7 bind?
A: binds
